Source: paper PMC7525497, “Antibodies from Sierra Leonean and Nigerian Lassa fever survivors cross-react with recombinant proteins representing Lassa viruses of divergent lineages” (Scientific Reports, 2020)

Biological target: the molecule itself
Assay: SDS-PAGE and western blotting

B1: LASV Zinc protein (Z), lineage IV (natural protein)
chain: MGNKQAKAPESKDSPRASLIPDATHLGPQFCKSCWFENKGLVECNNHYLCLNCLTLLLSVSNRCPICKMPLPTKLRPSAAPTAPPTGAADSIRPPPYSP
notes: also called Z protein; lineage IV Z
binding result: binds
